Tests used:
Test in all cases: ITC; VP-ITC (MicroCal), 30°C, 10 mM potassium phosphate buffer pH 7.6 or 7.8; SlyD or its variant 30 uM in the calorimetric cell, HiPIP precursor (RR-HiPIP) injected: 100 uM, 2x 22 injections of 10 uL (Fig 4); 200 uM, 23 injections of 10 uL (Fig 3)
Details in all cases: both partners purified
[1] = molecular target: T1, SlyD from Escherichia coli, C-terminally hexahistidine-tagged, wild type (E. coli, UniProt P0A9K9 1-196)
T1 construct: FKBP-type peptidyl-prolyl cis-trans isomerase SlyD, E. coli; the tag is fused to the C-terminal domain; also called WT; wt; not shown: His6, C-terminal, kept
T1 sequence: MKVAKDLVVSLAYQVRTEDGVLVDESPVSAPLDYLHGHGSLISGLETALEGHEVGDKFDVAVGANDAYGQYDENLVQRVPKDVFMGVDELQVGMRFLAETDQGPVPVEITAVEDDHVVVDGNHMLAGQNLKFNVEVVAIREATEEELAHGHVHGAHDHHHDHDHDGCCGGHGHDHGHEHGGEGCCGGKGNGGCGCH

[2] = molecular target: T2, SlyD D115A, C-terminally hexahistidine-tagged (E. coli, UniProt P0A9K9 1-196, D115A)
T2 construct: FKBP-type peptidyl-prolyl cis-trans isomerase SlyD, E. coli; the tag is fused to the C-terminal domain; not shown: His6, C-terminal, kept
T2 sequence: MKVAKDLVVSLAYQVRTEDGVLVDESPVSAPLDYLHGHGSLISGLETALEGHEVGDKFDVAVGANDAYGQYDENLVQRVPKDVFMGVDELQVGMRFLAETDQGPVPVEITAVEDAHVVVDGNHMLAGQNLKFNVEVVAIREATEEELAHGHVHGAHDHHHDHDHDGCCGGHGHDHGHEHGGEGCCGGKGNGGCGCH

[3] = molecular target: T3, SlyD E108A, C-terminally hexahistidine-tagged (E. coli, UniProt P0A9K9 1-196, E108A)
T3 construct: FKBP-type peptidyl-prolyl cis-trans isomerase SlyD, E. coli; the tag is fused to the C-terminal domain; not shown: His6, C-terminal, kept
T3 sequence: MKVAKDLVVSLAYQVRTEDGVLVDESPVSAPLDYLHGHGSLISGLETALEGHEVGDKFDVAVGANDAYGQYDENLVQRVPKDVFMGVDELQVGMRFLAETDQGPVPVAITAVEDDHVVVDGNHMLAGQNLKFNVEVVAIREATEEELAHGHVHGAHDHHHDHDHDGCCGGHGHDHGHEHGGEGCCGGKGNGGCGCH

[4] = molecular target: T4, SlyD F96N, C-terminally hexahistidine-tagged (E. coli, UniProt P0A9K9 1-196, F96N)
T4 construct: FKBP-type peptidyl-prolyl cis-trans isomerase SlyD, E. coli; the tag is fused to the C-terminal domain; not shown: His6, C-terminal, kept
T4 sequence: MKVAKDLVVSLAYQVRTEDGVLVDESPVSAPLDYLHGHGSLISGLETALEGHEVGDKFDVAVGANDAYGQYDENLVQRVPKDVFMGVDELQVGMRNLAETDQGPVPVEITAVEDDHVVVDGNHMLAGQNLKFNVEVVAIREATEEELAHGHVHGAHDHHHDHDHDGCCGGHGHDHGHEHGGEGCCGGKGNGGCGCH

[5] = molecular target: T5, SlyD Y68S, C-terminally hexahistidine-tagged (E. coli, UniProt P0A9K9 1-196, Y68S)
T5 construct: FKBP-type peptidyl-prolyl cis-trans isomerase SlyD, E. coli; the tag is fused to the C-terminal domain; not shown: His6, C-terminal, kept
T5 sequence: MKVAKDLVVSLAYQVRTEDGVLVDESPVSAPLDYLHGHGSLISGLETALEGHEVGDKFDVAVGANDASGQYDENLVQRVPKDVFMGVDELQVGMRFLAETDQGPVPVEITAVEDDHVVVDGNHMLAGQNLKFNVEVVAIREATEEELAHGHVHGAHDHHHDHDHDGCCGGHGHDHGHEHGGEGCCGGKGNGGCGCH

[6] = molecular target: T6, SlyD E73A, C-terminally hexahistidine-tagged (E. coli, UniProt P0A9K9 1-196, E73A)
T6 construct: FKBP-type peptidyl-prolyl cis-trans isomerase SlyD, E. coli; the tag is fused to the C-terminal domain; not shown: His6, C-terminal, kept
T6 sequence: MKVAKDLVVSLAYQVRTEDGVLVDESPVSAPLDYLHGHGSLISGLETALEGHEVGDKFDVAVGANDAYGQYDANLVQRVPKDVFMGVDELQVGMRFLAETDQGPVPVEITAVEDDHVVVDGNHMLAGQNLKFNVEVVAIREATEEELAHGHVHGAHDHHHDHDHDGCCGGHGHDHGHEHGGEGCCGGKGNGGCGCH

B1: HiPIP precursor (RR-HiPIP) from Allochromatium vinosum (natural protein)
chain: MSDKPISKSRRDAVKVMLGTAAAIPMINLVGFGTARASAPANAVAADDATAIALKYNQDATKSERVAAARPGLPPEEQHCANCQFMQADAAGATDEWKGCQLFPGKLINVNGWCASWTLKAG
modifications: HiPIP precursor; fully folded, [4Fe-4S] cluster presumed; signal peptide retained
stoichiometry N [1]: 0.71 ± 0.002
Kd [2]: 270 ± 20 nM
stoichiometry N [2]: 0.541 ± 0.026
stoichiometry N [3]: 0.569 ± 0.015
Kd [4]: 8.85 ± 2.78 µM
stoichiometry N [4]: 0.628 ± 0.036
stoichiometry N [5]: 0.462 ± 0.003
Kd [6]: 320 ± 20 nM
stoichiometry N [6]: 0.616 ± 0.003
